Measured values: patent US20220380446A1 (ABL BIO, published 2022)
Where a chain is given by its changes, count along the chain named. Like-named read-outs stand apart in the source and are kept apart here. Values belong to the binder of their own block, whether it stands above or below them.

Tests used:
[1] = molecular target: T1, human α-synuclein pre-formed fibrils (Human Alpha Synuclein Pre-formed Fibrils Type II, StressMarq SPR-317) (human, UniProt P37840 1-140); assay: cell-based or functional assay
[2] = molecular target: T1, human α-synuclein pre-formed fibrils …; assay: sandwich ELISA, antibody coated, α-syn PFF added, 7B7-biotin detection
Procedure: (§1) Specifically, the antibodies were diluted with PBS by six-fold serial dilution from 400 nM to 0.009 nM. The diluted antibodies were added to a 96-well plate at 100 μL/well for coating. The plate was sealed and incubated at 4° C. for 16 hours. After washing with phosphate-buffered saline with Tween® (PBS-T; 0.05% Tween® 20) five times, the plate was blocked with 5% BSA in PBS 200 μL/well at 37° C. for 2 hours. After washing with PBS-T five times, α-syn PFF (2 μg/mL, 100 μL/well in 2% BSA in PBS) was added to the plate and incubated at 37° C. for 2 hours. After washing with PBS-T five times, 7B7-biotin antibody (anti-α-syn antibody; 1 μg/mL/100 μL/well, in 2% BSA in PBS) was added and incubated at 37° C. for 2 hours. After washing with PBS-T five times, the plate was incubated with horseradish peroxidase (HRP)-bound streptavidin in PBS with 2% BSA (1:5000, 1 mg/mL stock, 20 ng/well, 100 μL/well) at 37° C. for 1 hour. After washing with PBS-T five times, 3,3′,5,5′-tetramethylbenzidine (TMB) (100 μL/well) was added and incubated at room temperature for 5 minutes. The reaction was stopped by the addition of 0.5 N H₂SO₄ (50 μL/well). Optical absorbance at 450 nm was measured by using a plate reader, with absorbance at 650 nm subtracted from the reading.

[3] = molecular target: T1, human α-synuclein pre-formed fibrils …; assay: as above; remark: listed apart in the source
Procedure: as §1

[4] = molecular target: T1, human α-synuclein pre-formed fibrils …; assay: as above; remark: listed apart in the source
Procedure: as §1

[5] = molecular target: T1, human α-synuclein pre-formed fibrils …; assay: as above; remark: listed apart in the source
Procedure: as §1

[6] = molecular target: T1, human α-synuclein pre-formed fibrils …; assay: as above; remark: listed apart in the source
Procedure: as §1

[7] = molecular target: T1, human α-synuclein pre-formed fibrils …; assay: SPR Biacore T200, antibody captured on Protein A chip, α-syn PFF analyte, 1:1 model
Procedure: (§2) The equipment used was Biacore® (GE Healthcare, Model T200). Protein A (GE Healthcare, Cat: 29-1275-56) was used as a chip, 10 mM glycine-HCl pH 1.5 (GE Healthcare, Cat: BR-1003-54) was used as a regeneration buffer, and HBS-EP was used as a running buffer and an analyte dilution and sample dilution buffer. […] A capture phase was carried out at a contact time of 60 seconds and a flow rate of 30 μL/min was used for a stabilization period of 60 seconds, with the target resonance units (RU) of fibril set to 10 (theoretical). In an association phase, the association time was set to 60 seconds and a flow rate was set to 60 μL/min. In a dissociation phase, the dissociation time was set to 180 seconds, and a flow rate was set to 60 μL/min. In a regeneration phase, the flow rate was set to 30 μL/min, and the regeneration time was set to 60 seconds. A 1:1 binding model was used for fitting, and the Biacore® T200 Evaluation software (GE Healthcare) was used for the evaluation.

[8] = molecular target: T1, human α-synuclein pre-formed fibrils …; assay: as above; remark: listed apart in the source
Procedure: as §2

[9] = molecular target: human α-synuclein oligomers (Dopamine HCL Stabilized Human Recombinant Alpha Synuclein Oligomers, StressMarq … (human, UniProt P37840 1-140)); assay: sandwich ELISA, antibody coated, oligomeric α-syn added, 7B7-biotin detection
Procedure: Human α-syn oligomers from StressMarq (Dopamine HCL Stabilized Human Recombinant Alpha Synuclein Oligomers, SPR-466) was used as the oligomeric α-syn in the assay.
In this sandwich ELISA, test antibodies were diluted with PBS by five-fold serial dilution from 80 nM to 0.005 nM. The serially diluted antibodies were added to a 96-well plate at 100 μL/well for coating. The plate was sealed and incubated at 4° C. for 16 hours. After washing with PBS-T five times, the plate was blocked with 5% BSA in PBS 200 μL/well at 37° C. for 2 hours. After washing with PBS-T five times, oligomeric α-syn (2 μg/mL, 100 μL/well in 2% BSA in PBS) was added and incubated at 37° C. for 2 hours. After washing with PBS-T five times, 7B7-biotin antibody (1 μg/mL, 100 μL/well, in 2% BSA in PBS) were added and incubated at 37° C. for 2 hours. After washing with PBS-T five times, the plate was incubated with Streptavidin-HRP in 2% BSA in PBS (1:5000, 1 mg/mL stock, 20 ng/well, 100 μL/well) at 37° C. for 1 hour. After washing with PBS-T five times, TMB (100 μL/well) was added and incubated at RT for 5 minutes. The reaction was stopped by the addition of 0.5 N H₂SO₄ (50 μL/well).

[10] = molecular target: T1, human α-synuclein pre-formed fibrils …; assay: SPR Biacore T200, antibody captured on Protein A chip, α-syn PFF analyte, 1:1 model; remark: listed apart in the source
Procedure: as §2

phagocytosis of α-syn PFF by BV-2 cells (gMFI, FACS) [1]: 2 fold against ch9E4
EC50 [2]: 0.876 nM
EC50 [3]: 0.209 nM
EC50 [4]: 0.554 nM
EC50 [5]: 0.484 nM
EC50 [6]: 1.61 nM
Kd [7]: 0.0519 nM
koff [7]: 0.00054 s⁻¹
kon [7]: 1.04e+07 M⁻¹ s⁻¹
Kd [8]: 0.0519 nM
koff [8]: 0.00054 s⁻¹
kon [8]: 1.04e+07 M⁻¹ s⁻¹
B1: chimeric 1E4 antibody (antibody, V domains shown)
VH: QVQLQQSGAELVRPGTSVKVSCKASGYAFTNYLIEWVKQRPGQGLEWIGVINPGSGGTNYNEKFKGKATLTADKSSSTAYMQLSSLTSDDSAVYFCASGNYDTYWGQGTLVTVSA
VL: DVVMTQTPLSLPVSLGDQASISCRSSQSLVHSNGNTYLHWYLQKPGQSPKLLIYKVSNRFSGVPDRFSGSGSGTDFTLKISRVEAEDLGVYFCSQSTHVPRTFGGGTKLEIK
notes: VH and VL of mouse 1E4 with human IgG1 and kappa constant regions; also called ch1E4; Ch1E4

EC50 [2]: 0.619 nM
EC50 [6]: 1.1 nM
EC50 [9]: 3.46 nM
Saturation point [9]: 3.16
Kd [7]: 0.0276 nM
koff [7]: 0.000439 s⁻¹
kon [7]: 1.59e+07 M⁻¹ s⁻¹
Kd [10]: 0.0302 nM
koff [10]: 0.000415 s⁻¹
kon [10]: 1.38e+07 M⁻¹ s⁻¹
B2: hu1E4(V1_VL1) (antibody, human IgG1, V domains shown)
VH: QVQLVQSGAEVKKPGASVKVSCKASGYTFTNYLIEWVRQAPGQGLEWMGVINPGSGGTNYNEKFKGRVTMTRDTSISTAYMELSRLRSDDTAVYYCASGNYDTYWGQGTLVTVSS
VL: B1 VL with V2I, P12S, S14T, L15P, D17Q, Q18P, K50Q, L88V, F92Y, G105Q
notes: Monospecific; fused to human IgG1 and kappa constant regions; also called humanized 1E4(V1_VL1); hu1E4(Ver.1_VL1)

EC50 [3]: 0.114 nM
Kd [7]: 0.096 nM
koff [7]: 0.00137 s⁻¹
kon [7]: 1.42e+07 M⁻¹ s⁻¹
B3: hu1E4(V9_VL4) (antibody, human IgG1, V domains shown)
VH: B2 VH with M48I, V68A, M70L, R72A, T74K
VL: B1 VL with T7S, S14T, D17Q, Q18P, L42Q, K44R, K50R, L88V, F92Y, L109V
notes: Monospecific; human IgG1 and kappa constant regions

EC50 [3]: 0.139 nM
Kd [7]: 0.051 nM
koff [7]: 0.000854 s⁻¹
kon [7]: 1.68e+07 M⁻¹ s⁻¹
B4: hu1E4(V8_VL4) (antibody, human IgG1, V domains shown)
VH: B2 VH with R72A, T74K
VL: B1 VL with T7S, S14T, D17Q, Q18P, L42Q, K44R, K50R, L88V, F92Y, L109V
notes: as for B3
